Measurements taken from PMC5112231.
Numbering of substitutions follows the chain as printed.

How the values were obtained:
Test in all cases: EMSA
Details in all cases: EMSA: binding buffer 100 mM Tris-HCl pH 8, 375 mM NaCl, 25 mM MgCl2, 5 mM DTT, 65% glycerol [sic]; about 1 nmol DNA in 20 ul, 25 C …
[1] = target: T1, Lrp K25Q K25Q (Salmonella Typhimurium 14028s) (UniProt A0A0F6AZA3)
T1 sequence: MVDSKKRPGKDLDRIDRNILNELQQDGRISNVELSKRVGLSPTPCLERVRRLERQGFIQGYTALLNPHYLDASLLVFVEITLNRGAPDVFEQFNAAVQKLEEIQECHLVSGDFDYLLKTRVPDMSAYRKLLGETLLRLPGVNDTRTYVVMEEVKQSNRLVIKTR

[2] = target: T2, Lrp K36Q K36Q (Salmonella Typhimurium 14028s) (UniProt A0A0F6AZA3)
T2 sequence: T1 sequence with Q25K, K36Q

[3] = target: T3, Lrp K36R K36R (Salmonella Typhimurium 14028s) (UniProt A0A0F6AZA3)
T3 sequence: T1 sequence with Q25K, K36R

[4] = target: T4, Lrp wild type (Salmonella Typhimurium 14028s) (UniProt A0A0F6AZA3)
T4 sequence: T1 sequence with Q25K

Sequence: ACACAGTGGAGCAATAATAAAGAATGAGACCTCCCTGTTGACTGGCTATTTTGCGTAAGAGTAATAAATATGTGGAATATCCATTTCGCACCAACAAAAAAGAAATTTCTGATTAAGTAAAAACAATATGGATTATACCTGGTCTGATTTCTCGGAAAAGTCTTGCGAAATGCGAATTATGGATAGCGGGTAGGATATTCTG (double strand) [fimZ promoter]
- binding [1]: binds
- binding [2]: binds more weakly
- binding [3]: binds
- binding [4]: binds
